Positions count from the first letter of the chain named. Names may count otherwise.
B1: Fab VH1-46_IGHD6-6*01_IGHJ1*01 S102A/S103P/S104F/H111F (APFF) & L6_IGKJ1*01 S28N/S30D/S31H (NDH) (Fab, V domains shown)
VH: QVQLVQSGAEVKKPGASVKVSCKASGYTFTSYYMHWVRQAPGQGLEWMGIINPSGGSTSYAQKFQGRVTMTRDTSTSTVYMELSSLRSEDTAVYYCAREEYAPFSAEYFQFWGQGTLVTVSS
VL: EIVLTQSPATLSLSPGERATLSCRASQNVDHYLAWYQQKPGQAPRLLIYDASNRATGIPARFSGSGSGTDFTLTISSLEPEDFAVYYCQQRSNWPPWTFGQGTKVEIKR
notes: Fab made in E. coli: VH in plasmid A (CH1, His6 and Flag tags), VL in plasmid C (kappa CL); also called H:APFF & L:NDH; APFF / NDH
B2: Fab VH1-46_IGHD6-6*01_IGHJ1*01 S102A/S103P/S104F/H111F (APFF) & L6_IGKJ1*01 S28N/S30D/S31H S52L (Fab, V domains shown)
VH: B1 VH
VL: B1 VL with S52L
notes: Fab made in E. coli: VH in plasmid A (CH1, His6 and Flag tags), VL in plasmid C (kappa CL); also called H:APFF & L:NDH S52L; APFF / NDH/S52L
B3: Fab VH1-46_IGHD6-6*01_IGHJ1*01 S102A/S103P/S104F/H111F (APFF) & L6_IGKJ1*01 S28N/S30D/S31H N53H (Fab, V domains shown)
VH: B1 VH
VL: B1 VL with N53H
notes: Fab made in E. coli: VH in plasmid A (CH1, His6 and Flag tags), VL in plasmid C (kappa CL); also called H:APFF & L:NDH N53H; APFF / NDH/N53H
B4: Fab VH1-46_IGHD6-6*01_IGHJ1*01 S102A/S103P/S104F/H111F (APFF) & L6_IGKJ1*01 S28N/S30D/S31H A55S (Fab, V domains shown)
VH: B1 VH
VL: B1 VL with A55S
notes: Fab made in E. coli: VH in plasmid A (CH1, His6 and Flag tags), VL in plasmid C (kappa CL); also called H:APFF & L:NDH A55S; APFF / NDH/A55S
B5: Fab VH1-46_IGHD6-6*01_IGHJ1*01 S102A/S103P/S104F/H111F (APFF) & L6_IGKJ1*01 S28N/S30D/S31H A55G (Fab, V domains shown)
VH: B1 VH
VL: B1 VL with A55G
notes: Fab made in E. coli: VH in plasmid A (CH1, His6 and Flag tags), VL in plasmid C (kappa CL); also called H:APFF & L:NDH A55G; APFF / NDH/A55G
B6: Fab VH1-46_IGHD6-6*01_IGHJ1*01 S102A/S103P/S104F/H111F (APFF) & L6_IGKJ1*01 S28N/S30D/S31H S52T (Fab, V domains shown)
VH: B1 VH
VL: B1 VL with S52T
notes: Fab made in E. coli: VH in plasmid A (CH1, His6 and Flag tags), VL in plasmid C (kappa CL); also called H:APFF & L:NDH S52T; APFF / NDH/S52T
B7: Fab VH1-46_IGHD6-6*01_IGHJ1*01 S102A/S103P/S104F/H111F I51T/N52L/P53A/S54T/G56H & L6_IGKJ1*01 (Fab, V domains shown)
VH: B1 VH with I51T, N52L, P53A, S54T, G56H
VL: not shown
notes: Fab; also called APFF TLATH
B8: Fab VH1-46_IGHD6-6*01_IGHJ1*01 S102A/S103P/S104F/H111F I51T/N52V & L6_IGKJ1*01 (Fab, V domains shown)
VH: B1 VH with I51T, N52V
VL: not shown
notes: Fab; also called APFF I51T/N52V
B9: Fab VH1-46_IGHD6-6*01_IGHJ1*01 S102A/S103P/S104F/H111F I51V/N52L/S54T/G56H & L6_IGKJ1*01 (Fab, V domains shown)
VH: B1 VH with I51V, N52L, S54T, G56H
VL: not shown
notes: Fab; also called APFF VLTH; APPF VLTH
B10: Fab VH1-46_IGHD6-6*01_IGHJ1*01 S102A/S103P/S104F/H111F N52L/S54T/G56H & L6_IGKJ1*01 (Fab, V domains shown)
VH: B1 VH with N52L, S54T, G56H
VL: not shown
notes: Fab; also called H:APFF LTH & L:wt; APFF LTH
B11: Fab VH5-51_IGHD5-18*01>3_IGHJ4*01 & V3-4_IGLJ1*01 (Fab, V domains shown)
VH: EVQLVQSGAEVKKPGESLKISCKGSGYSFTSYWIGWVRQMPGKGLEWMGIIYPGDSDTRYSPSFQGQVTISADKSISTAYLQWSSLKASDTAMYYCARRGYSYGYDYFDYWGQGTLVTVSS
VL: QTVVTQEPSFSVSPGGTVTLTCGLSSGSVSTSYYPSWYQQTPGQAPRTLIYSTNTRSSGVPDRFSGSILGNKAALTITGAQADDESDYYCVLYMGSGISYVFGTGTKVTVL
notes: Fab expressed in E. coli; VH was cloned into Plasmid A (CH1, His6 and Flag tags) and VL into Plasmid E (lambda CL); also called wildtype; parent Hit Fab VH5-51_IGHD5-18*01>3_IGHJ4*01 & V3-4_IGLJ1*01
B12: Fab VH5-51_IGHD5-18*01>3_IGHJ4*01 G104A & V3-4_IGLJ1*01 (Fab, V domains shown)
VH: B11 VH with G104A
VL: B11 VL
notes: Fab with CH1 (Plasmid A, His6 and Flag tags) and lambda CL (Plasmid E)
B13: Fab VH5-51_IGHD5-18*01>3_IGHJ4*01 Y105A & V3-4_IGLJ1*01 (Fab, V domains shown)
VH: B11 VH with Y105A
VL: B11 VL
notes: as for B12
B14: Fab VH5-51_IGHD5-18*01>3_IGHJ4*01 Y103A & V3-4_IGLJ1*01 (Fab, V domains shown)
VH: B11 VH with Y103A
VL: B11 VL
notes: as for B12

biological target: T1, Recombinant Human DLL4 (delta-like protein 4) (human, UniProt Q9NR61 27-524); assay: ELISA, plate-coated DLL4, Fab 25 nM
T1 construct: also called rHuman DLL4

ELISA signal at 25 nM Fab	Binder
0.31	B1
0.335	B2
0.238	B3
0.407	B4
0.316	B5
0.323	B6

biological target: T1, Recombinant Human DLL4 (delta-like …); assay: ELISA, plate-coated DLL4, Fab 50 nM

ELISA signal at 50 nM Fab	Binder
0.507	B1
0.546	B2
0.416	B3
0.588	B4
0.51	B5
0.49	B6

biological target: T1, Recombinant Human DLL4 (delta-like …); assay: ELISA, plate-coated DLL4, Fab 100 nM

ELISA signal at 100 nM Fab	Binder
0.686	B1
0.791	B2
0.608	B3
0.858	B4
0.814	B5
0.653	B6

biological target: T1, Recombinant Human DLL4 (delta-like …); assay: ELISA, plate-coated DLL4, Fab 12.5 nM

ELISA signal at 12.5 nM Fab	Binder
0.192	B1
0.215	B2
0.167	B3
0.258	B4
0.198	B5
0.215	B6

biological target: T1, Recombinant Human DLL4 (delta-like …); assay: ELISA, plate-coated DLL4, Fab 6.25 nM

ELISA signal at 6.25 nM Fab	Binder
0.125	B1
0.142	B2
0.109	B3
0.154	B4
0.125	B5
0.13	B6

biological target: T1, Recombinant Human DLL4 (delta-like …); assay: ELISA, plate-coated DLL4, Fab 3.125 nM

ELISA signal at 3.125 nM Fab	Binder
0.096	B1
0.095	B2
0.089	B3
0.108	B4
0.093	B5
0.099	B6

biological target: T2, Recombinant Human DLL4 (R&D Systems Cat#1506-D4/CF) (human, UniProt Q9NR61 27-524); assay: ELISA titration, 2-fold dilutions from 20 nM Fab
T2 construct: bought recombinant protein; also called rHuman DLL4; delta-like protein 4

Kd	Binder
> 100 nM	B7
10 to 100 nM	B8
1 to 10 nM	B9
1 to 10 nM	B10

biological target: T3, Recombinant Human DLL4 (delta-like protein 4) (human, UniProt Q9NR61 27-524); assay: ECL binding assay on immobilized DLL4, Fab at 0.04 µM
T3 construct: Bought recombinant human DLL4 (R&D Systems Cat#1506-D4/CF); also called rHuman DLL4; Delta-like ligand 4

Signal/Noise (0.04 µM)	Binder
14.7	B11
15.5	B12
9.6	B13
1.2	B14

From patent US20120316071A1 (published 2012)
